tested on: Escherichia coli TOP10; test: shrunken log2 fold change of peptide-encoding DNA abundance (4.5 h post-induction vs induction); higher = less antimicrobial activity (less host growth inhibition); conditions: time post-induction: 4.5 h; library: site-saturation at positions 5, 18, 19, 20
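Note: peptides expressed intracellularly from a pBAD plasmid library in pooled LB shake-flask culture, induced with 0.3% L-arabinose, DNA abundance read by NGS, three biological replicates, DESeq2 with apeglm shrinkage.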

Sequence	shrunken log2 fold change
RRIRIRPPRLPRPRPRPLSEPRP	-0.0382
RRIRFRPPRLPRPRPRPKHIPRP	-0.615
RRIRTRPPRLPRPRPRPATCPRP	2.77
RRIRPRPPRLPRPRPRPAFLPRP	-0.0283
RRIRSRPPRLPRPRPRPIIGPRP	-0.276
RRIRVRPPRLPRPRPRPRCKPRP	0.039
RRIRYRPPRLPRPRPRPTFCPRP	0.115
RRIRFRPPRLPRPRPRPIQSPRP	-0.127
RRIRVRPPRLPRPRPRPKYEPRP	0.0383
RRIRWRPPRLPRPRPRPKYSPRP	-0.654
RRIRYRPPRLPRPRPRPVIGPRP	-0.661
RRIRHRPPRLPRPRPRPNQVPRP	0.0339
RRIRQRPPRLPRPRPRPECRPRP	0.414
RRIRFRPPRLPRPRPRPGCTPRP	-0.116
RRIRRRPPRLPRPRPRPHRTPRP	0.102
RRIRLRPPRLPRPRPRPLPSPRP	3.98
RRIRDRPPRLPRPRPRPHCWPRP	0.15
RRIRARPPRLPRPRPRPYHTPRP	-0.407
RRIRIRPPRLPRPRPRPQCIPRP	-0.37
RRIRIRPPRLPRPRPRPKPFPRP	-0.00302
RRIRIRPPRLPRPRPRPLWQPRP	0.0858
RRIRCRPPRLPRPRPRPCHQPRP	0.0175

Sequence	shrunken log2 fold change
RRIRRRPPRLPRPRPRPAYYPRP	0.0681
RRIRKRPPRLPRPRPRPFSWPRP	0.0937
RRIRNRPPRLPRPRPRPCIPPRP	-0.0387
RRIRLRPPRLPRPRPRPLFEPRP	1.33
RRIRQRPPRLPRPRPRPMHFPRP	0.169
RRIRIRPPRLPRPRPRPHEMPRP	-0.143
RRIRLRPPRLPRPRPRPERQPRP	0.0746
RRIRCRPPRLPRPRPRPCSWPRP	0.0276
RRIRCRPPRLPRPRPRPSYQPRP	-0.923
RRIRWRPPRLPRPRPRPMMPPRP	0.0187
RRIRCRPPRLPRPRPRPTQPPRP	0.222
RRIRPRPPRLPRPRPRPHCVPRP	-0.0495
RRIRWRPPRLPRPRPRPGAQPRP	0.655
RRIRFRPPRLPRPRPRPFENPRP	-0.0822
RRIRVRPPRLPRPRPRPYVEPRP	-0.132
RRIRERPPRLPRPRPRPTAVPRP	-0.113
RRIRYRPPRLPRPRPRPKSLPRP	-0.204
RRIRQRPPRLPRPRPRPNQWPRP	0.0886
RRIRVRPPRLPRPRPRPGDSPRP	-0.0395
RRIRSRPPRLPRPRPRPSFTPRP	-0.524
RRIRTRPPRLPRPRPRPECIPRP	0.0878
RRIRHRPPRLPRPRPRPFQKPRP	0.00797

Sequence	shrunken log2 fold change
RRIRRRPPRLPRPRPRPYLCPRP	-0.404
RRIRHRPPRLPRPRPRPDPDPRP	-0.0982
RRIRRRPPRLPRPRPRPSWVPRP	-0.223
RRIRNRPPRLPRPRPRPWCYPRP	-0.428
RRIRYRPPRLPRPRPRPCSGPRP	-0.0198
RRIRKRPPRLPRPRPRPCKDPRP	0.0741
RRIRPRPPRLPRPRPRPQWGPRP	0.132
RRIRARPPRLPRPRPRPEFTPRP	0.475
RRIRFRPPRLPRPRPRPYHLPRP	-0.643
RRIRHRPPRLPRPRPRPDWYPRP	-0.061
RRIRMRPPRLPRPRPRPLGIPRP	0.0188
RRIRDRPPRLPRPRPRPAQRPRP	0.152
RRIRSRPPRLPRPRPRPHRNPRP	-0.489
RRIRMRPPRLPRPRPRPDLQPRP	0.461
RRIRERPPRLPRPRPRPKCMPRP	-0.0455
RRIRERPPRLPRPRPRPIPEPRP	-0.882
RRIRERPPRLPRPRPRPALTPRP	0.131
RRIRHRPPRLPRPRPRPTATPRP	0.39
RRIRARPPRLPRPRPRPLNLPRP	0.0866
RRIRYRPPRLPRPRPRPNKTPRP	-0.258
RRIRYRPPRLPRPRPRPHPFPRP	-1.3
RRIRGRPPRLPRPRPRPSVFPRP	0.465

Sequence	shrunken log2 fold change
RRIRTRPPRLPRPRPRPPHIPRP	-0.471
RRIRARPPRLPRPRPRPTWHPRP	0.419
RRIRPRPPRLPRPRPRPTNTPRP	-0.375
RRIRVRPPRLPRPRPRPYRAPRP	-0.201
RRIRERPPRLPRPRPRPVYTPRP	-0.146
RRIRSRPPRLPRPRPRPCFQPRP	-0.0966
RRIRWRPPRLPRPRPRPGHMPRP	-0.0823
RRIRARPPRLPRPRPRPLRPPRP	1.08
RRIRWRPPRLPRPRPRPWEIPRP	0.124
RRIRERPPRLPRPRPRPAVAPRP	0.0153
RRIRVRPPRLPRPRPRPHFDPRP	0.0221
RRIRVRPPRLPRPRPRPMVAPRP	-0.148
RRIRWRPPRLPRPRPRPKTKPRP	0.101
RRIRTRPPRLPRPRPRPRSSPRP	0.0755
RRIRCRPPRLPRPRPRPIARPRP	0.19
RRIRGRPPRLPRPRPRPETAPRP	1.76
RRIRSRPPRLPRPRPRPNYCPRP	-0.352
RRIRIRPPRLPRPRPRPGELPRP	-0.0665
RRIRFRPPRLPRPRPRPTVPPRP	0.341
RRIRIRPPRLPRPRPRPCFEPRP	-0.626
RRIRYRPPRLPRPRPRPLASPRP	-0.556
RRIRIRPPRLPRPRPRPVDPPRP	0.106

Sequence	shrunken log2 fold change
RRIRERPPRLPRPRPRPEAAPRP	0.575
RRIRQRPPRLPRPRPRPDRRPRP	0.00167
RRIRHRPPRLPRPRPRPQQGPRP	-0.14
RRIRDRPPRLPRPRPRPCRTPRP	-0.173
RRIRTRPPRLPRPRPRPGKHPRP	-0.803
RRIRQRPPRLPRPRPRPHDNPRP	1.99
RRIRSRPPRLPRPRPRPWIGPRP	-0.0735
RRIRARPPRLPRPRPRPCDTPRP	0.255
RRIRFRPPRLPRPRPRPLETPRP	0.105
RRIRMRPPRLPRPRPRPLPHPRP	0.407
RRIRTRPPRLPRPRPRPDPPPRP	0.517
RRIRKRPPRLPRPRPRPTVPPRP	0.283
RRIRRRPPRLPRPRPRPFEWPRP	-0.0864
RRIRVRPPRLPRPRPRPAMQPRP	0.193
RRIRCRPPRLPRPRPRPVYYPRP	-0.363
RRIRDRPPRLPRPRPRPTQMPRP	0.583
RRIRFRPPRLPRPRPRPCDEPRP	0.112
RRIRFRPPRLPRPRPRPFWPPRP	0.234
RRIRKRPPRLPRPRPRPGTHPRP	0.213
RRIRDRPPRLPRPRPRPHQKPRP	0.365
RRIRERPPRLPRPRPRPWTEPRP	0.027

Reference: the supplement of paper PMC9112550, “Optimization of the antimicrobial peptide Bac7 by deep mutational scanning” (BMC Biology, 2022)
